Common to all, as to type: ADME, microsomes
Substrate in data set [1]: COCCCOc1cc(C[C@@H](C[C@H](N)[C@@H](O)C[C@H](C(=O)NCC(C)(C)C(N)=O)C(C)C)C(C)C)ccc1OC
Put plainly: Enzyme kinetics constant (Km value) for CYP4F3B was determined in human liver microsome incubated with [14C]SPP100 hemifumarate.

Substrate in data set [2]: COCCCOc1cc(C[C@@H](C[C@H](N)[C@@H](O)C[C@H](C(=O)NCC(C)(C)C(N)=O)C(C)C)C(C)C)ccc1OC
Briefly: Enzyme kinetics constant (Km value) for CYP3A5 was determined in human liver microsome incubated with [14C]SPP100 hemifumarate.

Substrate in data set [3]: COCCCOc1cc(C[C@@H](C[C@H](N)[C@@H](O)C[C@H](C(=O)NCC(C)(C)C(N)=O)C(C)C)C(C)C)ccc1OC
Put plainly: Enzyme kinetics constant (Km value) for CYP2D6 was determined in human liver microsome incubated with [14C]SPP100 hemifumarate.

Substrate in data set [4]: COCCCOc1cc(C[C@@H](C[C@H](N)[C@@H](O)C[C@H](C(=O)NCC(C)(C)C(N)=O)C(C)C)C(C)C)ccc1OC
Briefly: Enzyme kinetics constant (Km value) for CYP4F2 was determined in human liver microsome incubated with [14C]SPP100 hemifumarate.

Substrate in data set [5]: COCCCOc1cc(C[C@@H](C[C@H](N)[C@@H](O)C[C@H](C(=O)NCC(C)(C)C(N)=O)C(C)C)C(C)C)ccc1OC
Briefly: Enzyme kinetics constant (Km value) for CYP3A7 was determined in human liver microsome incubated with [14C]SPP100 hemifumarate.

Substrate in data set [6]: COCCCOc1cc(C[C@@H](C[C@H](N)[C@@H](O)C[C@H](C(=O)NCC(C)(C)C(N)=O)C(C)C)C(C)C)ccc1OC
Put plainly: Enzyme kinetics constant (Km value) for CYP4A11 was determined in human liver microsome incubated with [14C]SPP100 hemifumarate.

Substrate in data set [7]: COCCCOc1cc(C[C@@H](C[C@H](N)[C@@H](O)C[C@H](C(=O)NCC(C)(C)C(N)=O)C(C)C)C(C)C)ccc1OC
Put plainly: Enzyme kinetics constant (Km value) for CYP2J2 was determined in human liver microsome incubated with [14C]SPP100 hemifumarate.

Substrate in data set [8]: COCCCOc1cc(C[C@@H](C[C@H](N)[C@@H](O)C[C@H](C(=O)NCC(C)(C)C(N)=O)C(C)C)C(C)C)ccc1OC
Put plainly: Enzyme kinetics constant (Km value) for CYP2E1 was determined in human liver microsome incubated with [14C]SPP100 hemifumarate.

B1: Cytochrome P450 4F3 (Homo sapiens) (protein)
chain: MPQLSLSSLGLWPMAASPWLLLLLVGASWLLARILAWTYTFYDNCCRLRCFPQPPKRNWFLGHLGLIHSSEEGLLYTQSLACTFGDMCCWWVGPWHAIVRIFHPTYIKPVLFAPAAIVPKDKVFYSFLKPWLGDGLLLSAGEKWSRHRRMLTPAFHFNILKPYMKIFNESVNIMHAKWQLLASEGSARLDMFEHISLMTLDSLQKCVFSFDSHCQEKPSEYIAAILELSALVTKRHQQILLYIDFLYYLTPDGQRFRRACRLVHDFTDAVIQERRRTLPSQGVDDFLQAKAKSKTLDFIDVLLLSKDEDGKKLSDEDIRAEADTFMFEGHDTTASGLSWVLYHLAKHPEYQERCRQEVQELLKDREPKEIEWDDLAQLPFLTMCIKESLRLHPPVPAVSRCCTQDIVLPDGRVIPKGIICLISVFGTHHNPAVWPDPEVYDPFRFDPKNIKERSPLAFIPFSAGPRNCIGQAFAMAEMKVVLGLTLLRFRVLPDHTEPRRKPELVLRAEGGLWLRVEPLS
Turning to B1, in data set [1], the Km worked out at 5 µM and the Vmax is 0.000121 µmol/min/mg.

B2: Cytochrome P450 3A5 (Homo sapiens) (protein)
chain: MDLIPNLAVETWLLLAVSLVLLYLYGTRTHGLFKRLGIPGPTPLPLLGNVLSYRQGLWKFDTECYKKYGKMWGTYEGQLPVLAITDPDVIRTVLVKECYSVFTNRRSLGPVGFMKSAISLAEDEEWKRIRSLLSPTFTSGKLKEMFPIIAQYGDVLVRNLRREAEKGKPVTLKDIFGAYSMDVITGTSFGVNIDSLNNPQDPFVESTKKFLKFGFLDPLFLSIILFPFLTPVFEALNVSLFPKDTINFLSKSVNRMKKSRLNDKQKHRLDFLQLMIDSQNSKETESHKALSDLELAAQSIIFIFAGYETTSSVLSFTLYELATHPDVQQKLQKEIDAVLPNKAPPTYDAVVQMEYLDMVVNETLRLFPVAIRLERTCKKDVEINGVFIPKGSMVVIPTYALHHDPKYWTEPEEFRPERFSKKKDSIDPYIYTPFGTGPRNCIGMRFALMNMKLALIRVLQNFSFKPCKETQIPLKLDTQGLLQPEKPIVLKVDSRDGTLSGE
For the protein B2, in data set [2], the Km came to 28.7 µM and the Vmax worked out at 0.00135 µmol/min/mg.

B3: Cytochrome P450 2D6 (Homo sapiens) (protein)
chain: MGLEALVPLAVIVAIFLLLVDLMHRRQRWAARYPPGPLPLPGLGNLLHVDFQNTPYCFDQLRRRFGDVFSLQLAWTPVVVLNGLAAVREALVTHGEDTADRPPVPITQILGFGPRSQGVFLARYGPAWREQRRFSVSTLRNLGLGKKSLEQWVTEEAACLCAAFANHSGRPFRPNGLLDKAVSNVIASLTCGRRFEYDDPRFLRLLDLAQEGLKEESGFLREVLNAVPVLLHIPALAGKVLRFQKAFLTQLDELLTEHRMTWDPAQPPRDLTEAFLAEMEKAKGNPESSFNDENLRIVVADLFSAGMVTTSTTLAWGLLLMILHPDVQRRVQQEIDDVIGQVRRPEMGDQAHMPYTTAVIHEVQRFGDIVPLGVTHMTSRDIEVQGFRIPKGTTLITNLSSVLKDEAVWEKPFRFHPEHFLDAQGHFVKPEAFLPFSAGRRACLGEPLARMELFLFFTSLLQHFSFSVPTGQPRPSHHGVFAFLVSPSPYELCAVPR
In the case of B3, in data set [3], the Michaelis constant (Km) was 73.6 µM and the Vmax amounted to 0.00548 µmol/min/mg.

B4: Cytochrome P450 4F2 (Homo sapiens) (protein)
chain: MSQLSLSWLGLWPVAASPWLLLLLVGASWLLAHVLAWTYAFYDNCRRLRCFPQPPRRNWFWGHQGMVNPTEEGMRVLTQLVATYPQGFKVWMGPISPLLSLCHPDIIRSVINASAAIAPKDKFFYSFLEPWLGDGLLLSAGDKWSRHRRMLTPAFHFNILKPYMKIFNESVNIMHAKWQLLASEGSACLDMFEHISLMTLDSLQKCVFSFDSHCQEKPSEYIAAILELSALVSKRHHEILLHIDFLYYLTPDGQRFRRACRLVHDFTDAVIQERRRTLPSQGVDDFLQAKAKSKTLDFIDVLLLSKDEDGKKLSDEDIRAEADTFMFEGHDTTASGLSWVLYHLAKHPEYQERCRQEVQELLKDREPKEIEWDDLAHLPFLTMCMKESLRLHPPVPVISRHVTQDIVLPDGRVIPKGIICLISVFGTHHNPAVWPDPEVYDPFRFDPENIKERSPLAFIPFSAGPRNCIGQTFAMAEMKVVLALTLLRFRVLPDHTEPRRKPELVLRAEGGLWLRVEPLS
In the case of B4, in data set [4], the Km amounted to 11.3 µM and the Vmax came out at 8.91e-05 µmol/min/mg.

B5: Cytochrome P450 3A7 (Homo sapiens) (protein)
chain: MDLIPNLAVETWLLLAVSLILLYLYGTRTHGLFKKLGIPGPTPLPFLGNALSFRKGYWTFDMECYKKYRKVWGIYDCQQPMLAITDPDMIKTVLVKECYSVFTNRRPFGPVGFMKNAISIAEDEEWKRIRSLLSPTFTSGKLKEMVPIIAQYGDVLVRNLRREAETGKPVTLKHVFGAYSMDVITSTSFGVSIDSLNNPQDPFVENTKKLLRFNPLDPFVLSIKVFPFLTPILEALNITVFPRKVISFLTKSVKQIKEGRLKETQKHRVDFLQLMIDSQNSKDSETHKALSDLELMAQSIIFIFAGYETTSSVLSFIIYELATHPDVQQKVQKEIDTVLPNKAPPTYDTVLQLEYLDMVVNETLRLFPVAMRLERVCKKDVEINGMFIPKGVVVMIPSYVLHHDPKYWTEPEKFLPERFSKKNKDNIDPYIYTPFGSGPRNCIGMRFALVNMKLALVRVLQNFSFKPCKETQIPLKLRFGGLLLTEKPIVLKAESRDETVSGA
Regarding B5, in data set [5], the Km was 32.6 µM and the Vmax was 0.000113 µmol/min/mg.

B6: Cytochrome P450 4A11 (Homo sapiens) (protein)
chain: MSVSVLSPSRLLGDVSGILQAASLLILLLLLIKAVQLYLHRQWLLKALQQFPCPPSHWLFGHIQELQQDQELQRIQKWVETFPSACPHWLWGGKVRVQLYDPDYMKVILGRSDPKSHGSYRFLAPWIGYGLLLLNGQTWFQHRRMLTPAFHYDILKPYVGLMADSVRVMLDKWEELLGQDSPLEVFQHVSLMTLDTIMKCAFSHQGSIQVDRNSQSYIQAISDLNNLVFSRVRNAFHQNDTIYSLTSAGRWTHRACQLAHQHTDQVIQLRKAQLQKEGELEKIKRKRHLDFLDILLLAKMENGSILSDKDLRAEVDTFMFEGHDTTASGISWILYALATHPKHQERCREEIHSLLGDGASITWNHLDQMPYTTMCIKEALRLYPPVPGIGRELSTPVTFPDGRSLPKGIMVLLSIYGLHHNPKVWPNPEVFDPFRFAPGSAQHSHAFLPFSGGSRNCIGKQFAMNELKVATALTLLRFELLPDPTRIPIPIARLVLKSKNGIHLRLRRLPNPCEDKDQL
On to B6, for which, in data set [6], the Km is 3.1 µM and the Vmax was determined as 1.55e-05 µmol/min/mg.

B7: Cytochrome P450 2J2 (Homo sapiens) (protein)
chain: MLAAMGSLAAALWAVVHPRTLLLGTVAFLLAADFLKRRRPKNYPPGPWRLPFLGNFFLVDFEQSHLEVQLFVKKYGNLFSLELGDISAVLITGLPLIKEALIHMDQNFGNRPVTPMREHIFKKNGLIMSSGQAWKEQRRFTLTALRNFGLGKKSLEERIQEEAQHLTEAIKEENGQPFDPHFKINNAVSNIICSITFGERFEYQDSWFQQLLKLLDEVTYLEASKTCQLYNVFPWIMKFLPGPHQTLFSNWKKLKLFVSHMIDKHRKDWNPAETRDFIDAYLKEMSKHTGNPTSSFHEENLICSTLDLFFAGTETTSTTLRWALLYMALYPEIQEKVQAEIDRVIGQGQQPSTAARESMPYTNAVIHEVQRMGNIIPLNVPREVTVDTTLAGYHLPKGTMILTNLTALHRDPTEWATPDTFNPDHFLENGQFKKREAFMPFSIGKRACLGEQLARTELFIFFTSLMQKFTFRPPNNEKLSLKFRMGITISPVSHRLCAVPQV
For B7, in data set [7], the Km amounted to 67 µM and the Vmax worked out at 0.000604 µmol/min/mg.

B8: Cytochrome P450 2E1 (Homo sapiens) (protein)
chain: MSALGVTVALLVWAAFLLLVSMWRQVHSSWNLPPGPFPLPIIGNLFQLELKNIPKSFTRLAQRFGPVFTLYVGSQRMVVMHGYKAVKEALLDYKDEFSGRGDLPAFHAHRDRGIIFNNGPTWKDIRRFSLTTLRNYGMGKQGNESRIQREAHFLLEALRKTQGQPFDPTFLIGCAPCNVIADILFRKHFDYNDEKFLRLMYLFNENFHLLSTPWLQLYNNFPSFLHYLPGSHRKVIKNVAEVKEYVSERVKEHHQSLDPNCPRDLTDCLLVEMEKEKHSAERLYTMDGITVTVADLFFAGTETTSTTLRYGLLILMKYPEIEEKLHEEIDRVIGPSRIPAIKDRQEMPYMDAVVHEIQRFITLVPSNLPHEATRDTIFRGYLIPKGTVVVPTLDSVLYDNQEFPDPEKFKPEHFLNENGKFKYSDYFKPFSTGKRVCAGEGLARMELFLLLCAILQHFNLKPLVDPKDIDLSPIHIGFGCIPPRYKLCVIPRS
Consider B8, for which, in data set [8], the Michaelis constant (Km) stood at 31.9 µM and the Vmax stood at 4.62e-05 µmol/min/mg.

Source of the values: ChEMBL document CHEMBL3508693.
